Measured values reported in article PMC5803408 (Structure (London, England : 1993), 2018).

T1: human UHRF1 TTD domain (residues 126-284) N194A (human, UniProt Q96T88 126-284, N194A)
T1 sequence (looked up): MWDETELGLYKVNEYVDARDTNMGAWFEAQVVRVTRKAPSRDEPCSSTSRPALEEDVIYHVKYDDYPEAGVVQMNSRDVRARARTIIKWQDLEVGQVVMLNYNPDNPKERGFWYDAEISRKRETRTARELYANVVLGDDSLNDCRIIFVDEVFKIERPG

T2: human UHRF1 TTD domain (residues 126-284) N147A (human, UniProt Q96T88 126-284, N147A)
T2 sequence (looked up): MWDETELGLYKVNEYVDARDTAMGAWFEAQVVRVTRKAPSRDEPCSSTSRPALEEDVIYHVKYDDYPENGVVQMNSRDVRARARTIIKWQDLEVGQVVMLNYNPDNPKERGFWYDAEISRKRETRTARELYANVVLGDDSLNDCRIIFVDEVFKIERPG

T3: human UHRF1 TTD-PHD dual domains (residues 126-366) (human, UniProt Q96T88 126-366)
T3 sequence (looked up): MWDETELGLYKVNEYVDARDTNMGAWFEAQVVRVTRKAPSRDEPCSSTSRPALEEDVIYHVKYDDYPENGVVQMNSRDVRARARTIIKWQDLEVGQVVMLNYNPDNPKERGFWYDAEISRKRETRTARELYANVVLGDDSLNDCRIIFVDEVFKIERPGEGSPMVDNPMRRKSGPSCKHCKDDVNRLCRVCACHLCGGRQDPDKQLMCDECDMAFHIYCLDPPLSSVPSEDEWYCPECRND

T4: human UHRF1 TTD domain (residues 126-284) D142A/E153A (human, UniProt Q96T88 126-284, D142A | E153A)
T4 sequence (looked up): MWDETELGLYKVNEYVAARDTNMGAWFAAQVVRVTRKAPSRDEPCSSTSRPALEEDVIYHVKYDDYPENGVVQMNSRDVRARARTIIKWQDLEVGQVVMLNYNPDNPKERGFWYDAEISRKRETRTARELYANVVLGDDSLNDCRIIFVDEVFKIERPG


Legend:
chromatin = details: previous study; ref Zhang et al., 2015; cited from earlier work
[1] = target: T1, human UHRF1 TTD domain (residues …); experiment: ITC
[2] = target: T2, human UHRF1 TTD domain (residues …); experiment: ITC
[3] = target: T3, human UHRF1 TTD-PHD dual domains …; experiment: ITC
[4] = target: T4, human UHRF1 TTD domain (residues …); experiment: cell-based or functional assay

Row | Molecule | chromatin binding of UHRF1 with K644E/K646E mutations in PBR (chromatin) | binding result [1] | binding result [2] | fold weaker binding than to TTD [3] [fold] | FRET ratio of the CFP-UHRF1 (D142A/E153A)-YFP mutant, intramolecular [4]
1 | K644E/K646E: UHRF1 with K644E/K646E mutations in the PBR sequence (previous study) (protein, UniProt Q96T88 1-793, looked up, variant K644E K646E) E3 ubiquitin-protein ligase …: MWIQVRTMDGRQTHTVDSLSRLTKVEELRRKIQELFHVEPGLQRLFYRGKQMEDGHTLFDYEVRLNDTIQLLVRQSLVLPHSTKERDSELSDTDSGCCLGQSESDKSSTHGEAAAETDSRPADEDMWDETELGLYKVNEYVDARDTNMGAWFEAQVVRVTRKAPSRDEPCSSTSRPALEEDVIYHVKYDDYPENGVVQMNSRDVRARARTIIKWQDLEVGQVVMLNYNPDNPKERGFWYDAEISRKRETRTARELYANVVLGDDSLNDCRIIFVDEVFKIERPGEGSPMVDNPMRRKSGPSCKHCKDDVNRLCRVCACHLCGGRQDPDKQLMCDECDMAFHIYCLDPPLSSVPSEDEWYCPECRNDASEVVLAGERLRESKKKAKMASATSSSQRDWGKGMACVGRTKECTIVPSNHYGPIPGIPVGTMWRFRVQVSESGVHRPHVAGIHGRSNDGAYSLVLAGGYEDDVDHGNFFTYTGSGGRDLSGNKRTAEQSCDQKLTNTNRALALNCFAPINDQEGAEAKDWRSGKPVRVVRNVKGGKNSKYAPAEGNRYDGIYKVVKYWPEKGKSGFLVWRYLLRRDDDEPGPWTKEGKDRIKKLGLTMQYPEGYLEALANREREKENSKREEEEQQEGGFASPRTGEGEWKRKSAGGGPSRAGSPRRTSKKTKVEPYSLTAQQSSLIREDKSNAKLWNEVLASLKDRPASGSPFQLFLSKVEETFQCICCQELVFRPITTVCQHNVCKDCLDRSFRAQVFSCPACRYDLGRSYAMQVNQPLQTVLNQLFPGYGNGR | reduced chromatin binding of UHRF1 | – | – | – | –
2 | EGGFASPRTGKGKWKRKSAGGGPSRAGSPRRT (peptide, UniProt Q96T88 634-665, looked up) [human UHRF1 PBR peptide (residues 634-665)] | – | binds | binds | ~3 | 0.52
